Results as given in paper PMC4995138.

Biological target: Human pyruvate kinase isoform M2 (PKM2), wild type (human) (UniProt P14618)
Assay: SEC

Sequence of Human pyruvate kinase isoform M2 (PKM2), wild type, P14618 1-531 (enzyme; other documents disagree on this pair) (P14618 whole entry, canonical isoform): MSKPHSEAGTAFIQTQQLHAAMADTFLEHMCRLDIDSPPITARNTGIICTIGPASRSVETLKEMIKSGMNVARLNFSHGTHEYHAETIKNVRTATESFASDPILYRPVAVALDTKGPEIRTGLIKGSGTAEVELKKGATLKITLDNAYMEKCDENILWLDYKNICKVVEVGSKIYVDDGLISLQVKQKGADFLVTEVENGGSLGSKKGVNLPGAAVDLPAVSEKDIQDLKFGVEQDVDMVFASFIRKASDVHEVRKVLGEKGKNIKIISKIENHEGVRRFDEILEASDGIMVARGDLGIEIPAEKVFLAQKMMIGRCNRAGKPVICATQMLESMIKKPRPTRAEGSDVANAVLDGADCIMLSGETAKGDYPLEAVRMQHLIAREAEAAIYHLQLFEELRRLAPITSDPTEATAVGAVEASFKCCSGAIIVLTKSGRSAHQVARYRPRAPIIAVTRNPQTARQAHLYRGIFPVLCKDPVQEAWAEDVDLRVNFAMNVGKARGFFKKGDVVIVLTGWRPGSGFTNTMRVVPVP

Human pyruvate kinase isoform M2 (PKM2), wild type, P14618 1-531 (enzyme; other documents disagree on this pair)
stoichiometry N: 2
